Source: US20140213513A1 (Sanofi, priority 2012, published 2014)
*1 amine or outer side, *2 acyl side, *3 side chain or, on linkers, in order; H or OH if unused. Where no end group is shown, it is not given here. Side-chain parts run from the residue outwards. [ ]: non-standard residue; d: D form. The star is where a group is joined. γGlu = O=C(O)[C@H](CCC(=O)[*:2])N[*:1]; Palmitoyl = CCCCCCCCCCCCCCCC(=O)*; Aib = CC(C)(N)C(=O)O

T1: human GIP receptor (human, UniProt P48546 22-466)
T1 sequence (looked up): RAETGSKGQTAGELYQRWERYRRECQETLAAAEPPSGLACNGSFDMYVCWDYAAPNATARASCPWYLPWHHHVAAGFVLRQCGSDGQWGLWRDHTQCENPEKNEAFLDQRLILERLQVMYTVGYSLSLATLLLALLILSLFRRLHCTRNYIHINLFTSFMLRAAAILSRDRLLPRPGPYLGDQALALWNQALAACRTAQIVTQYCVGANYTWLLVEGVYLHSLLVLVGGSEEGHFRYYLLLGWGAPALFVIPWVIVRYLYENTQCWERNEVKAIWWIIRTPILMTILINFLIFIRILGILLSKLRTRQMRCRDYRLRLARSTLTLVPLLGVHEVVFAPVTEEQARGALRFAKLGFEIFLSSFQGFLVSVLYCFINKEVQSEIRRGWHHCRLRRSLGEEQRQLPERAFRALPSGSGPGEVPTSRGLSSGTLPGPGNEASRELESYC

B1: exendin-4 peptide analogue SEQ ID NO: 55 (peptide)
peptide: Y[Aib]EGTFTSDLSIQK([γGlu-Palmitoyl])DKRAAQLFIEWLKNGGPSSGAPPPS-NH2
modifications: N-terminus assumed
SMILES: CCCCCCCCCCCCCCCC(=O)N[C@@H](CCC(=O)NCCCC[C@H](NC(=O)[C@H](CCC(N)=O)NC(=O)[C@@H](NC(=O)[C@H](CO)NC(=O)[C@H](CC(C)C)NC(=O)[C@H](CC(=O)O)NC(=O)[C@H](CO)NC(=O)[C@@H](NC(=O)[C@H](Cc1ccccc1)NC(=O)[C@@H](NC(=O)CNC(=O)[C@H](CCC(=O)O)NC(=O)C(C)(C)NC(=O)[C@@H](N)Cc1ccc(O)cc1)[C@@H](C)O)[C@@H](C)O)[C@@H](C)CC)C(=O)N[C@@H](CC(=O)O)C(=O)N[C@@H](CCCCN)C(=O)N[C@@H](CCCNC(=N)N)C(=O)N[C@@H](C)C(=O)N[C@@H](C)C(=O)N[C@@H](CCC(N)=O)C(=O)N[C@@H](CC(C)C)C(=O)N[C@@H](Cc1ccccc1)C(=O)N[C@H](C(=O)N[C@@H](CCC(=O)O)C(=O)N[C@@H](Cc1c[nH]c2ccccc12)C(=O)N[C@@H](CC(C)C)C(=O)N[C@@H](CCCCN)C(=O)N[C@@H](CC(N)=O)C(=O)NCC(=O)NCC(=O)N1CCC[C@H]1C(=O)N[C@@H](CO)C(=O)N[C@@H](CO)C(=O)NCC(=O)N[C@@H](C)C(=O)N1CCC[C@H]1C(=O)N1CCC[C@H]1C(=O)N1CCC[C@H]1C(=O)N[C@@H](CO)C(N)=O)[C@@H](C)CC)C(=O)O
B2: exendin-4 peptide analogue SEQ ID NO: 54 (peptide)
peptide: Y[Aib]EGTFTSDLSIQK([γGlu-Palmitoyl])DKRKAQDFIEWLKNGGPSSGAPPPS-NH2
modifications: N-terminus assumed
SMILES: CCCCCCCCCCCCCCCC(=O)N[C@@H](CCC(=O)NCCCC[C@H](NC(=O)[C@H](CCC(N)=O)NC(=O)[C@@H](NC(=O)[C@H](CO)NC(=O)[C@H](CC(C)C)NC(=O)[C@H](CC(=O)O)NC(=O)[C@H](CO)NC(=O)[C@@H](NC(=O)[C@H](Cc1ccccc1)NC(=O)[C@@H](NC(=O)CNC(=O)[C@H](CCC(=O)O)NC(=O)C(C)(C)NC(=O)[C@@H](N)Cc1ccc(O)cc1)[C@@H](C)O)[C@@H](C)O)[C@@H](C)CC)C(=O)N[C@@H](CC(=O)O)C(=O)N[C@@H](CCCCN)C(=O)N[C@@H](CCCNC(=N)N)C(=O)N[C@@H](CCCCN)C(=O)N[C@@H](C)C(=O)N[C@@H](CCC(N)=O)C(=O)N[C@@H](CC(=O)O)C(=O)N[C@@H](Cc1ccccc1)C(=O)N[C@H](C(=O)N[C@@H](CCC(=O)O)C(=O)N[C@@H](Cc1c[nH]c2ccccc12)C(=O)N[C@@H](CC(C)C)C(=O)N[C@@H](CCCCN)C(=O)N[C@@H](CC(N)=O)C(=O)NCC(=O)NCC(=O)N1CCC[C@H]1C(=O)N[C@@H](CO)C(=O)N[C@@H](CO)C(=O)NCC(=O)N[C@@H](C)C(=O)N1CCC[C@H]1C(=O)N1CCC[C@H]1C(=O)N1CCC[C@H]1C(=O)N[C@@H](CO)C(N)=O)[C@@H](C)CC)C(=O)O
B3: exendin-4 peptide analogue SEQ ID NO: 53 (peptide)
peptide: Y[Aib]QGTFTSDLSIQK([γGlu-Palmitoyl])DKRRAQDFIEWLKAGGPSSGAPPPS-NH2
modifications: N-terminus assumed
SMILES: CCCCCCCCCCCCCCCC(=O)N[C@@H](CCC(=O)NCCCC[C@H](NC(=O)[C@H](CCC(N)=O)NC(=O)[C@@H](NC(=O)[C@H](CO)NC(=O)[C@H](CC(C)C)NC(=O)[C@H](CC(=O)O)NC(=O)[C@H](CO)NC(=O)[C@@H](NC(=O)[C@H](Cc1ccccc1)NC(=O)[C@@H](NC(=O)CNC(=O)[C@H](CCC(N)=O)NC(=O)C(C)(C)NC(=O)[C@@H](N)Cc1ccc(O)cc1)[C@@H](C)O)[C@@H](C)O)[C@@H](C)CC)C(=O)N[C@@H](CC(=O)O)C(=O)N[C@@H](CCCCN)C(=O)N[C@@H](CCCNC(=N)N)C(=O)N[C@@H](CCCNC(=N)N)C(=O)N[C@@H](C)C(=O)N[C@@H](CCC(N)=O)C(=O)N[C@@H](CC(=O)O)C(=O)N[C@@H](Cc1ccccc1)C(=O)N[C@H](C(=O)N[C@@H](CCC(=O)O)C(=O)N[C@@H](Cc1c[nH]c2ccccc12)C(=O)N[C@@H](CC(C)C)C(=O)N[C@@H](CCCCN)C(=O)N[C@@H](C)C(=O)NCC(=O)NCC(=O)N1CCC[C@H]1C(=O)N[C@@H](CO)C(=O)N[C@@H](CO)C(=O)NCC(=O)N[C@@H](C)C(=O)N1CCC[C@H]1C(=O)N1CCC[C@H]1C(=O)N1CCC[C@H]1C(=O)N[C@@H](CO)C(N)=O)[C@@H](C)CC)C(=O)O
B4: exendin-4 peptide analogue SEQ ID NO: 52 (peptide)
peptide: Y[Aib]QGTFTSDLSIQK([γGlu-Palmitoyl])DSRRAQDFIEWLKAGGPSSGAPPPS-NH2
modifications: N-terminus assumed
SMILES: CCCCCCCCCCCCCCCC(=O)N[C@@H](CCC(=O)NCCCC[C@H](NC(=O)[C@H](CCC(N)=O)NC(=O)[C@@H](NC(=O)[C@H](CO)NC(=O)[C@H](CC(C)C)NC(=O)[C@H](CC(=O)O)NC(=O)[C@H](CO)NC(=O)[C@@H](NC(=O)[C@H](Cc1ccccc1)NC(=O)[C@@H](NC(=O)CNC(=O)[C@H](CCC(N)=O)NC(=O)C(C)(C)NC(=O)[C@@H](N)Cc1ccc(O)cc1)[C@@H](C)O)[C@@H](C)O)[C@@H](C)CC)C(=O)N[C@@H](CC(=O)O)C(=O)N[C@@H](CO)C(=O)N[C@@H](CCCNC(=N)N)C(=O)N[C@@H](CCCNC(=N)N)C(=O)N[C@@H](C)C(=O)N[C@@H](CCC(N)=O)C(=O)N[C@@H](CC(=O)O)C(=O)N[C@@H](Cc1ccccc1)C(=O)N[C@H](C(=O)N[C@@H](CCC(=O)O)C(=O)N[C@@H](Cc1c[nH]c2ccccc12)C(=O)N[C@@H](CC(C)C)C(=O)N[C@@H](CCCCN)C(=O)N[C@@H](C)C(=O)NCC(=O)NCC(=O)N1CCC[C@H]1C(=O)N[C@@H](CO)C(=O)N[C@@H](CO)C(=O)NCC(=O)N[C@@H](C)C(=O)N1CCC[C@H]1C(=O)N1CCC[C@H]1C(=O)N1CCC[C@H]1C(=O)N[C@@H](CO)C(N)=O)[C@@H](C)CC)C(=O)O
B5: exendin-4 peptide analogue SEQ ID NO: 56 (peptide)
peptide: Y[Aib]QGTFTSDLSKQK([γGlu-Palmitoyl])DSRAARDFIEWLKAGGPSSGAPPPS-NH2
modifications: N-terminus assumed
SMILES: CCCCCCCCCCCCCCCC(=O)N[C@@H](CCC(=O)NCCCC[C@H](NC(=O)[C@H](CCC(N)=O)NC(=O)[C@H](CCCCN)NC(=O)[C@H](CO)NC(=O)[C@H](CC(C)C)NC(=O)[C@H](CC(=O)O)NC(=O)[C@H](CO)NC(=O)[C@@H](NC(=O)[C@H](Cc1ccccc1)NC(=O)[C@@H](NC(=O)CNC(=O)[C@H](CCC(N)=O)NC(=O)C(C)(C)NC(=O)[C@@H](N)Cc1ccc(O)cc1)[C@@H](C)O)[C@@H](C)O)C(=O)N[C@@H](CC(=O)O)C(=O)N[C@@H](CO)C(=O)N[C@@H](CCCNC(=N)N)C(=O)N[C@@H](C)C(=O)N[C@@H](C)C(=O)N[C@@H](CCCNC(=N)N)C(=O)N[C@@H](CC(=O)O)C(=O)N[C@@H](Cc1ccccc1)C(=O)N[C@H](C(=O)N[C@@H](CCC(=O)O)C(=O)N[C@@H](Cc1c[nH]c2ccccc12)C(=O)N[C@@H](CC(C)C)C(=O)N[C@@H](CCCCN)C(=O)N[C@@H](C)C(=O)NCC(=O)NCC(=O)N1CCC[C@H]1C(=O)N[C@@H](CO)C(=O)N[C@@H](CO)C(=O)NCC(=O)N[C@@H](C)C(=O)N1CCC[C@H]1C(=O)N1CCC[C@H]1C(=O)N1CCC[C@H]1C(=O)N[C@@H](CO)C(N)=O)[C@@H](C)CC)C(=O)O
B6: exendin-4 peptide analogue SEQ ID NO: 10 (peptide)
peptide: Y[Aib]QGTFTSDLSIQK([γGlu-Palmitoyl])EKYAA[Aib]EFIEWLKNTGPSSGAPPPS-NH2
modifications: N-terminus assumed
SMILES: CCCCCCCCCCCCCCCC(=O)N[C@@H](CCC(=O)NCCCC[C@H](NC(=O)[C@H](CCC(N)=O)NC(=O)[C@@H](NC(=O)[C@H](CO)NC(=O)[C@H](CC(C)C)NC(=O)[C@H](CC(=O)O)NC(=O)[C@H](CO)NC(=O)[C@@H](NC(=O)[C@H](Cc1ccccc1)NC(=O)[C@@H](NC(=O)CNC(=O)[C@H](CCC(N)=O)NC(=O)C(C)(C)NC(=O)[C@@H](N)Cc1ccc(O)cc1)[C@@H](C)O)[C@@H](C)O)[C@@H](C)CC)C(=O)N[C@@H](CCC(=O)O)C(=O)N[C@@H](CCCCN)C(=O)N[C@@H](Cc1ccc(O)cc1)C(=O)N[C@@H](C)C(=O)N[C@@H](C)C(=O)NC(C)(C)C(=O)N[C@@H](CCC(=O)O)C(=O)N[C@@H](Cc1ccccc1)C(=O)N[C@H](C(=O)N[C@@H](CCC(=O)O)C(=O)N[C@@H](Cc1c[nH]c2ccccc12)C(=O)N[C@@H](CC(C)C)C(=O)N[C@@H](CCCCN)C(=O)N[C@@H](CC(N)=O)C(=O)N[C@H](C(=O)NCC(=O)N1CCC[C@H]1C(=O)N[C@@H](CO)C(=O)N[C@@H](CO)C(=O)NCC(=O)N[C@@H](C)C(=O)N1CCC[C@H]1C(=O)N1CCC[C@H]1C(=O)N1CCC[C@H]1C(=O)N[C@@H](CO)C(N)=O)[C@@H](C)O)[C@@H](C)CC)C(=O)O

What follows are binders tested against human glucagon receptor (human, UniProt P47871 26-477) (assay: cell-based or functional assay).
Chain of human glucagon receptor (P47871 26-477): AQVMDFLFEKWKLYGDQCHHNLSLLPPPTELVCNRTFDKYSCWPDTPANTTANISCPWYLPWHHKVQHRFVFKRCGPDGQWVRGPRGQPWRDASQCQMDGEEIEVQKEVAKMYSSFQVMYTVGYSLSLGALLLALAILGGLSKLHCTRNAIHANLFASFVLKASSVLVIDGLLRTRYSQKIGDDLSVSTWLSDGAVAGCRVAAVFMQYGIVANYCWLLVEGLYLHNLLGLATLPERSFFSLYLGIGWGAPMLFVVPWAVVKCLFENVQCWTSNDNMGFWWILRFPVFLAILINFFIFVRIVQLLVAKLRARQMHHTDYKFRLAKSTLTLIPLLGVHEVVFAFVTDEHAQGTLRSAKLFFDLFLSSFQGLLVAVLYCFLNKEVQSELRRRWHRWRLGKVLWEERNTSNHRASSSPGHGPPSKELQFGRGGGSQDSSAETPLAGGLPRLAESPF
In the case of B1, the “EC50 hGLUC R” value is reported as 18.3 nM. For B2, the “EC50 hGLUC R” value was 2.62 nM. With B3 the “EC50 hGLUC R” value was 0.0079 nM. In the case of B4, the “EC50 hGLUC R” value is reported as 0.0133 nM. With B5 the “EC50 hGLUC R” value was 0.0199 nM. In the case of B6, the “EC50 hGLUC R” value is reported as 0.667 nM.

These binders were tested against T1, human GIP receptor (assay: cell-based or functional assay).
In the case of B1, the “EC50 hGIP R” value is reported as 0.0156 nM. In the case of B2, the “EC50 hGIP R” value is reported as 0.105 nM. In the case of B3, the “EC50 hGIP R” value is reported as 0.0932 nM. B4 was tested, and the “EC50 hGIP R” value was 0.182 nM. B5 was tested, and the “EC50 hGIP R” value was 0.162 nM. B6 was tested, and the “EC50 hGIP R” value was 0.0144 nM.

What follows are binders tested against human GLP-1 receptor (human, UniProt P43220 24-463) (assay: cell-based or functional assay).
In the case of B1, the “EC50 hGLP-1 R” value is reported as 0.0161 nM. B2 was tested, and the “EC50 hGLP-1 R” value was 0.0668 nM. B3 was tested, and the “EC50 hGLP-1 R” value was 0.0136 nM. In the case of B4, the “EC50 hGLP-1 R” value is reported as 0.0256 nM. With B5 the “EC50 hGLP-1 R” value was 0.0046 nM. In the case of B6, the “EC50 hGLP-1 R” value is reported as 0.0052 nM.
